The target in test [1] is T1, Type 1 rat tail collagen (Rattus norvegicus, UniProt P02454+P02466).
T1 construct: Collagen Type 1 solution from rat tail (3 mg/mL, C3867, 95%) was purchased from Sigma-Aldrich; purchased Sigma-Aldrich C3867; host or cells: rat tail (tissue-derived)
Nature of the test: MicroXCT imaging of mineral formed within peptide-incorporated collagen after ALP-driven mineralization. The format is biochemical. The settings on record: MicroXCT shaded surface display, 20-min ALP-driven mineralization. Here is the method: (§1) Grade V1 round mica, 0.21 mm thick and 12 mm in diameter, was used as the substrate surface and mounted onto a 12 mm atomic force microscopy specimen disc using STKYDOT adhesive. In 1 mL of 3 mg/mL Type 1 rat tail collagen suspension, 50 nanomoles of peptide were added. The ratio of mass collagen to mass peptide ranged from 100 wt collagen: 1 wt peptide for single domains to 100 wt collagen: 3 wt peptide for the chimeric peptide. Once peptide was dissolved and gently mixed in the collagen suspension, 150 μL was drop-cast onto the substrate surface and left to self-assemble at 4° C. for 16 h.
ALP-driven mineralization was executed following the protocol discussed in Gungormus et al. (2008). The mineralization buffer prepared was composed of 24.4 Ca^2+ mM and 14.4 mM B-glycerophosphate made in 25 mM Tris-HCl buffer at pH 7.4, and 200 μL/well was added to a 24-well plate. […]
The microscale structure of the mineral formed within the peptide-incorporated collagen platform as a physical indicator of intrafibrillar mineralization, was observed using 3D X-ray microcomputed tomography (MicroXCT-400, Xradia Inc., Pleasanton, CA, USA). […] The 3D images were reconstructed using the XM Reconstructor 8.0 software and were analyzed from an orthogonal view using a TXM 3D Viewer under the […] surface display (SSD) mode (Xradia Inc., Pleasanton, CA, USA). […]

In test [2] the target is T1, Type 1 rat tail collagen. Nature of the test: SEM/EDS of Ca-P deposits on peptide-incorporated collagen after ALP-driven mineralization. The format is biochemical. Here is the method:
as §1
(§2) ALP-driven mineralization was executed following the protocol discussed in Gungormus et al. (2008). The mineralization buffer prepared was composed of 24.4 Ca^2+ mM and 14.4 mM B-glycerophosphate made in 25 mM Tris-HCl buffer at pH 7.4, and 200 μL/well was added to a 24-well plate. Collagen-peptide samples were placed gently within the well to lay flat at the bottom. The mineralization reaction was initiated by adding FastAP (thermosensitive alkaline phosphatase), 1.4×10^−6 g/mL, and left to incubate at 37° C. for 20 min. The samples were then removed from the wells, gently rinsed in sterile-filtered water, and left to air dry overnight. Throughout this process the samples were handled in a horizontally flat manner to prevent disturbing the peptide-functionalized collagen layer on the surface of the substrate.
In order to examine initial intrafibrillar mineral formation and morphology and determine Ca/P ratios precipitated on the peptide-functionalized collagen surface, a Cold Field Emission Scanning […] Microscope (SEM, S-4700 model, Hitachi High-Tech America, Schaumburg, IL, USA) equipped with a silicon drift energy-dispersive detector (EDS, X-max, Oxford Instruments, Concord, MA, USA) was used via the Microscopy and Analytical Imaging Research Resource Core Laboratory (RRID:SCR_021801). Collagen-peptide samples were sputter-coated with 3 nm gold using a Quorum sputter coating system (Q150, Quorum, Laughton, East Sussex, UK). SEM imaging was completed at an acceleration voltage of 10 kV at ultra-high resolution operating mode and EDS measurements were made at 10 kV under normal operating mode to preserve the integrity of the collagen-peptide layer and prevent burning during signal capture. EDS analysis was performed through AZtec software (X-MaxN, Oxford Instruments, Concord, MA, USA).
The composition and morphology of the Ca—P deposits formed on collagen samples were examined using scanning electron microscopy (SEM) with energy dispersive X-ray analysis (EDS). […] The EDS results validated the finding of Ca—P mineral isomorphs on the peptide-incorporated collagen platforms. The calcium/phosphate ratios were calculated to examine compositional differences. […] Whereas collagen+ (CBP) and collagen+ (CBP-HABP1) had comparatively lower average Ca—P ratios at 1.30 and 1.25, respectively. These values are similar to the molar ratio of octacalcium phosphate, which is around 1.33, and amorphous calcium phosphate (ACP), which is roughly 1.50 [54-57].

Test [3] has as its target T1, Type 1 rat tail collagen. Nature of the test: Collagen fibril self-assembly with incorporated peptide, AFM topography fibril widths. The following applies: peptide co-assembled with collagen (50 nanomoles in 1 mL of 3 mg/mL), drop-cast on mica. Here is the method: as §1
(§3) A Bruker Multimode 8 HR scanning probe microscope (Bruker Nano Inc., Camarillo, CA, USA) was operated in peak force tapping mode with the capability of Quantitative Nanomechanics (PeakForce-QNM) in air mode conditions (24±2° C., 40%±5% RH). This advanced testing mode was used to examine the topographical and nanomechanical property changes of the collagen-peptide samples both before and after mineralization. Tapping mode etched silicon probes, type RTESPA 525-30 (Bruker Nano Inc., Camarillo, CA, USA) with a resonant frequency of about 518 kHz, were used to acquire images (1 μm×3 μm and 5 μm×5 μm) at scan rate of 0.5 Hz with 512 pixel/line resolution. The images of the samples were recorded using NanoScope 8.15 software and analyzed using NanoScope Analysis 2.0 software (Bruker Nano Inc., Camarillo, CA, USA).
Building upon the conformational flexibility of the peptide, the CBP-HABP1 peptide was then studied for the assembly properties on the collagen fibrils on mica substrate using AFM topography image analysis. The images were acquired in tapping mode. Non-fibril features, indicated as intensity saturated regions on the surface, are acetic acid salt crystals from the evaporation of the solution in which the collagen was suspended. These features were excluded from image to prevent signal shadowing of the surface fibril assembly. […] Collagen+ (CBP-HABP1) fibrils were measured to be smaller than collagen-alone fibrils, resulting in a statistically significant difference. […]

The target in test [4] is T1, Type 1 rat tail collagen. Nature of the test: PeakForce-QNM AFM modulus mapping of peptide-functionalized collagen pre/post ALP-driven mineralization. The following applies: peptide incorporated into collagen. Here is the method: as §1, §2, §3
Building on the observed effects of the chimeric peptide on the collagen, next examined was if there was a change on the mechanical properties of the collagen due to the peptide presence. Quantitative modulus mapping was executed via PeakForce-QNM AFM to observe the changes in the elastic modulus distribution on the surfaces. The elastic modulus was previously established to be derived by using the Derjaguin-Muller-Toropov (DMT) model, and is thus reported as the DMT modulus. […]

The values that follow come from patent US20260224446A1, “BIFUNCTIONAL PEPTIDES USEFUL FOR COLLAGEN INTRAFIBRILLAR MINERALIZATION” (University of Kansas, priority 2023, published 2026).

T1 sequence (P02466 86-1125 limits assumed): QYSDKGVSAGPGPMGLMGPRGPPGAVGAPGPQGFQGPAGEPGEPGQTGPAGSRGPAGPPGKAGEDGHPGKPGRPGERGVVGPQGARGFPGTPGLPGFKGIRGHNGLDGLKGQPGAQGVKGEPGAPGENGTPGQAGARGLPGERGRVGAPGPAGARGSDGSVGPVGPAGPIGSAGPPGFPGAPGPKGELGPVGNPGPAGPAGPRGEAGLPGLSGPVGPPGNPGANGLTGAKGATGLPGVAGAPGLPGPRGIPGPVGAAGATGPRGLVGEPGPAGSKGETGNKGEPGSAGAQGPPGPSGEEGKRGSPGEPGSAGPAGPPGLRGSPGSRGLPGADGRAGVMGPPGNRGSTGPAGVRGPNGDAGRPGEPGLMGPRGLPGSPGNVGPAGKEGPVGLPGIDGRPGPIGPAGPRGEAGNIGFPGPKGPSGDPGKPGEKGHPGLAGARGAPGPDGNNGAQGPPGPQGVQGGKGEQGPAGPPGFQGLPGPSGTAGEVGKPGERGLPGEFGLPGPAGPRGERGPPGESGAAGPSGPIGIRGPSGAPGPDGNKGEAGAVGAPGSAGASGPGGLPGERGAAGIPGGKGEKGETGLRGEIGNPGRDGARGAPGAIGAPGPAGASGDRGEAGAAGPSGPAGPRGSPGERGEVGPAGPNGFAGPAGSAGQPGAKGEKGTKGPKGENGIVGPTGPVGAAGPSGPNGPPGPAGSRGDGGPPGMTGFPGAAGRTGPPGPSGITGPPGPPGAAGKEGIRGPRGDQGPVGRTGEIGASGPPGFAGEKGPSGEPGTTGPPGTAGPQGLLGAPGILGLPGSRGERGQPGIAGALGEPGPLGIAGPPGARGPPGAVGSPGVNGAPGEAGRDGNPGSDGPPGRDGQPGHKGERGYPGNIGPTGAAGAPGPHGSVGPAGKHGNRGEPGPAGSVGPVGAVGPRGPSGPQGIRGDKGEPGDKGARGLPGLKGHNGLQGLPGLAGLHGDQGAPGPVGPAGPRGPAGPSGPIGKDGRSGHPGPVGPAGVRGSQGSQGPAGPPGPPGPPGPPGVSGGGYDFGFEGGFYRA
T1 sequence (P02454 152-1207 limits assumed): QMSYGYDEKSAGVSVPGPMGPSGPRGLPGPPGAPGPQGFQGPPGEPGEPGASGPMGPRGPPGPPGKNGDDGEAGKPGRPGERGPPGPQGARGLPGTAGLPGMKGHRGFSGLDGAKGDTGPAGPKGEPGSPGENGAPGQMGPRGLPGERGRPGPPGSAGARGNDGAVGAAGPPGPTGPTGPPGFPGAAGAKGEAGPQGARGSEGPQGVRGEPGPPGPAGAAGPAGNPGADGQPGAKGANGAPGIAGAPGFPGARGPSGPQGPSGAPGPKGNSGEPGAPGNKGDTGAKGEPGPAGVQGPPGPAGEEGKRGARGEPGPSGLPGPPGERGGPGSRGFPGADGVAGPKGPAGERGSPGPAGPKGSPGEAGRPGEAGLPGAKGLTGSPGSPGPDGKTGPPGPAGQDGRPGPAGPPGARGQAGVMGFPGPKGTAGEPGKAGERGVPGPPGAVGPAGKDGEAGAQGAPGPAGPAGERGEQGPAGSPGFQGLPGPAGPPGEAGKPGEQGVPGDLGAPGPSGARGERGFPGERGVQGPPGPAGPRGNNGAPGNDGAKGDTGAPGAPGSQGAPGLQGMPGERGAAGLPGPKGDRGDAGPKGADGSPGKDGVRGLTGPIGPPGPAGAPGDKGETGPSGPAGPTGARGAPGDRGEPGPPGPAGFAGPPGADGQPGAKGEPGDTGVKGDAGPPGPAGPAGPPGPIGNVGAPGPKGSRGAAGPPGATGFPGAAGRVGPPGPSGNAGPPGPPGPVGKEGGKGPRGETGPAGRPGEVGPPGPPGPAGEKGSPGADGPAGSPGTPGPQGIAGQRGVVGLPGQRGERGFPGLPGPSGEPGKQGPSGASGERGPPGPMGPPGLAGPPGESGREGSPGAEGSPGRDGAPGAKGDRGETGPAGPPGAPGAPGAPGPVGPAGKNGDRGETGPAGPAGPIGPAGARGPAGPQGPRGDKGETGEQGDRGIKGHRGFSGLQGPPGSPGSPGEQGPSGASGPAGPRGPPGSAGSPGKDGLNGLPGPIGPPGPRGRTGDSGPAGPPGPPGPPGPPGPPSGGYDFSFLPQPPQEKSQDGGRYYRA

With TKKLTLRTAPAMLPHHGA [CBP-HABP1], in the test with Type 1 rat tail collagen [1], the “void areas in collagen interior” value was “almost no void areas”. In addition, the “density of mineralized collagen layer” value in the test with Type 1 rat tail collagen [1] (versus collagen control) was “denser formation compared to ALP-based mineralized collagen samples”. In addition, the “average Ca—P ratio” value in the test with Type 1 rat tail collagen [2] (EDS, initial mineral on peptide-incorporated collagen after 20 min ALP-driven mineralization) is recorded as 1.25. For the same sequence, the “mineral formation morphology on SEM images” value in the test with Type 1 rat tail collagen [2] (peptide-incorporated collagen after ALP-driven mineralization) was “more extensively branched columnar mineral growth as well as plate-like mineral growth”. This sequence also yielded a Mean fibril width in the test with Type 1 rat tail collagen [3] of 82.37 nm. Further, the entries for the “DMT (elastic) modulus” value with Type 1 rat tail collagen [4] (after 20 min ALP-driven mineralization) and with Type 1 rat tail collagen [4] (pre-mineralization) were 5.83 GPa and 5.25 GPa, respectively.
